Results as given in patent publication US20160031996A1 (CSL, published 2016).

T1: soluble human IL-3Rα 1-306-His F90A (human, UniProt P26951 19-307)
T1 construct: supernatant of 293FS cells; also called F90, soluble alanine
T1 sequence: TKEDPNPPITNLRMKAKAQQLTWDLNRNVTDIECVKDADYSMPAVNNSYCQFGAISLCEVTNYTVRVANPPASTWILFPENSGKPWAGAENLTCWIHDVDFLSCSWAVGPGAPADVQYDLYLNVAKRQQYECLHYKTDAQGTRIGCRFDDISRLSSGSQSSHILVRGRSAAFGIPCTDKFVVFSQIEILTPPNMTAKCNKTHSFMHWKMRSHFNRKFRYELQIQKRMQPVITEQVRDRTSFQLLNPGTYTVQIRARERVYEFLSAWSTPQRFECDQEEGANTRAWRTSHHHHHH

T2: soluble human IL-3Rα 1-306-His S59A (human, UniProt P26951 19-307)
T2 construct: supernatant of 293FS cells; also called S59, soluble alanine
T2 sequence: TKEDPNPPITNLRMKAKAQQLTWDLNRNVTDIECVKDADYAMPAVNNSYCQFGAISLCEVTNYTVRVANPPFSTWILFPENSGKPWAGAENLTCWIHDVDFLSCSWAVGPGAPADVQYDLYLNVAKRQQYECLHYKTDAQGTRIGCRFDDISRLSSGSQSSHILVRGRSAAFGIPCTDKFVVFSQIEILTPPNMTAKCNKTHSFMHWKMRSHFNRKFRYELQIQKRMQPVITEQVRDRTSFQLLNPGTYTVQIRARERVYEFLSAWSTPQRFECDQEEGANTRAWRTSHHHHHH

T3: human IL-3Rα E51Q/S59A/P88T triple mutant, full length (human, UniProt P26951 19-378)
T3 chain: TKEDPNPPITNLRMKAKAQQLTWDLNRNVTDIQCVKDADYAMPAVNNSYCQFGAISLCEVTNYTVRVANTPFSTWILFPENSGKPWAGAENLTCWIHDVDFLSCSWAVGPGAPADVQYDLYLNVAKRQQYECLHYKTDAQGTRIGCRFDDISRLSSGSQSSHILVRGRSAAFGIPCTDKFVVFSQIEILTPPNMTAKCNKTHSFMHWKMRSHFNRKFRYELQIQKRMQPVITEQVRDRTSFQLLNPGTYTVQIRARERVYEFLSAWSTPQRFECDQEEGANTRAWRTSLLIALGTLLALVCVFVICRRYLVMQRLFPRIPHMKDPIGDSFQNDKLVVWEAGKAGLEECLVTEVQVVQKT

T4: human IL-3Rα S59A/P88T double mutant, full length (human, UniProt P26951 19-378)
T4 chain: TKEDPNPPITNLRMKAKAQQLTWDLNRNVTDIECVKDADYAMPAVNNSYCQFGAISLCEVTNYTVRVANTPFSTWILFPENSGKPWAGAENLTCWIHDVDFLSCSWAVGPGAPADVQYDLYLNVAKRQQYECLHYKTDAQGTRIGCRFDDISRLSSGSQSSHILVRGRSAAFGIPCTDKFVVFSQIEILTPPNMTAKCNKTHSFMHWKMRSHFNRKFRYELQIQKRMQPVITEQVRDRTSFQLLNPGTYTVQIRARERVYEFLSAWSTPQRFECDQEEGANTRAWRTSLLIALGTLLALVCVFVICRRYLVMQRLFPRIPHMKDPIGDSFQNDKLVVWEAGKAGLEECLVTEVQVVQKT

T5: human IL-3Rα E51Q/P88T double mutant, full length (human, UniProt P26951 19-378)
T5 chain: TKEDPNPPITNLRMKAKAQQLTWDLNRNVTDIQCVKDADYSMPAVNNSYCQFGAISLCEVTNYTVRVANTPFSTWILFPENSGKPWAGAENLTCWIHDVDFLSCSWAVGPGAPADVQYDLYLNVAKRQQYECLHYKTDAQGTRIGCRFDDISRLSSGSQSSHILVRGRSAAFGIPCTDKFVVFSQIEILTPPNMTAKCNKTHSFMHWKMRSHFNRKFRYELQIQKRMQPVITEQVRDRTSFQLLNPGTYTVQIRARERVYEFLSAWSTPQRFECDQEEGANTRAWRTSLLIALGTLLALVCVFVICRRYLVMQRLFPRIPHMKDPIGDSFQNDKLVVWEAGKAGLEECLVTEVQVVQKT

T6: human IL-3Rα E51Q/S59A double mutant, full length (human, UniProt P26951 19-378)
T6 chain: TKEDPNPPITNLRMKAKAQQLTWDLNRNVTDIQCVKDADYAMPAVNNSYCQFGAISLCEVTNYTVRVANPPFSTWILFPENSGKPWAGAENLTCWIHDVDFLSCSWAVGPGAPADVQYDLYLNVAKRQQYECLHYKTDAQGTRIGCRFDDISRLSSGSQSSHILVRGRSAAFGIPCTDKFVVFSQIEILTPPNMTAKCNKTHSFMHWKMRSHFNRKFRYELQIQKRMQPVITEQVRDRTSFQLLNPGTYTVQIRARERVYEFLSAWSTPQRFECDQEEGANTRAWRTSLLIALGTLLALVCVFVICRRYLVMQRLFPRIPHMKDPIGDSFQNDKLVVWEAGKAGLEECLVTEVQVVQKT


Assays:
[1] = target: T1, soluble human IL-3Rα 1-306-His F90A; test: Western blot, supernatants of 293FS cells
[2] = target: T2, soluble human IL-3Rα 1-306-His S59A; test: Western blot, supernatants of 293FS cells
[3] = target: T3, human IL-3Rα E51Q/S59A/P88T triple …; test: Western blot after SDS-PAGE of whole cell extracts
[4] = target: T4, human IL-3Rα S59A/P88T double mutant, …; test: Western blot after SDS-PAGE of whole cell extracts
[5] = target: T5, human IL-3Rα E51Q/P88T double mutant, …; test: Western blot after SDS-PAGE of whole cell extracts
[6] = target: T6, human IL-3Rα E51Q/S59A double mutant, …; test: Western blot after SDS-PAGE of whole cell extracts

| binding result [1] | binding result [2] | binding result [3] | binding result [4] | binding result [5] | binding result [6] | Binder |
| --- | --- | --- | --- | --- | --- | --- |
| no binding | no binding | – | – | – | – | antibody CSL362 (antibody, V domains shown) VH: EVQLVQSGAEVKKPGESLKISCKGSGYSFTDYYMKWARQMPGKGLEWMGDIIPSNGATFYNQKFKGQVTISADKSISTTYLQWSSLKASDTAMYYCARSHLLRASWFAYWGQGTMVTVSS VL: DIVMTQSPDSLAVSLGERATINCESSQSLLNSGNQKNYLTWYQQKPGQPPKPLIYWASTRESGVPDRFSGSGSGTDFTLTISSLQAEDVAVYYCQNDYSYPYTFGQGTKLEIKR |
| – | – | no binding | no binding | no binding | no binding | monoclonal antibody 7G3 (antibody, V domains shown, mouse monoclonal antibody (hybridoma ATCC HB-12009)) VH: EVQLQQSGPELVKPGASVKMSCKASGYTFTDYYMKWVKQSHGKSLEWIGDIIPSNGATFYNQKFKGKATLTVDRSSSTAYMHLNSLTSEDSAVYYCTRSHLLRASWFAYWGQGTLVTVSA VL: DFVMTQSPSSLTVTAGEKVTMSCKSSQSLLNSGNQKNYLTWYLQKPGQPPKLLIYWASTRESGVPDRFTGSGSGTDFTLTISSVQAEDLAVYYCQNDYSYPYTFGGGTKLEIKR |
